Source: patent US20240124553A1

What was measured:
Experiment in all cases: flow cytometry, transfected 293T cells
[1] = molecular target: CHIKV E2-E1 envelope glycoproteins (strain S27), E2 mutant K47A (chikungunya virus strain S27) (UniProt Q8JUX5)
[2] = molecular target: CHIKV E2-E1 envelope glycoproteins (strain S27), E2 mutant D60A (chikungunya virus strain S27) (UniProt Q8JUX5)
[3] = molecular target: CHIKV E2-E1 envelope glycoproteins (strain S27), E2 mutant S122A (chikungunya virus strain S27) (UniProt Q8JUX5)
[4] = molecular target: CHIKV E2-E1 envelope glycoproteins (strain S27), E2 mutant G79A (chikungunya virus strain S27) (UniProt Q8JUX5)
[5] = molecular target: CHIKV E2-E1 envelope glycoproteins (strain S27), E2 mutant L67A (chikungunya virus strain S27) (UniProt Q8JUX5)
[6] = molecular target: CHIKV E2-E1 envelope glycoproteins (strain S27), E2 mutant N39A (chikungunya virus strain S27) (UniProt Q8JUX5)
[7] = molecular target: CHIKV E2-E1 envelope glycoproteins (strain S27), E2 mutant L83A (chikungunya virus strain S27) (UniProt Q8JUX5)
[8] = molecular target: CHIKV E2-E1 envelope glycoproteins (strain S27), E2 mutant D63A (chikungunya virus strain S27) (UniProt Q8JUX5)
[9] = molecular target: CHIKV E2-E1 envelope glycoproteins (strain S27), E2 mutant L34A (chikungunya virus strain S27) (UniProt Q8JUX5)
[10] = molecular target: CHIKV E2-E1 envelope glycoproteins (strain S27), E2 mutant F115A (chikungunya virus strain S27) (UniProt Q8JUX5)
[11] = molecular target: CHIKV E2-E1 envelope glycoproteins (strain S27), E2 mutant A76S (chikungunya virus strain S27) (UniProt Q8JUX5)
[12] = molecular target: CHIKV E2-E1 envelope glycoproteins (strain S27), E2 mutant C91A (chikungunya virus strain S27) (UniProt Q8JUX5)
[13] = molecular target: CHIKV E2-E1 envelope glycoproteins (strain S27), E2 mutant G57A (chikungunya virus strain S27) (UniProt Q8JUX5)
[14] = molecular target: CHIKV E2-E1 envelope glycoproteins (strain S27), E2 mutant H73A (chikungunya virus strain S27) (UniProt Q8JUX5)
[15] = molecular target: CHIKV E2-E1 envelope glycoproteins (strain S27), E2 mutant T96A (chikungunya virus strain S27) (UniProt Q8JUX5)
[16] = molecular target: CHIKV E2-E1 envelope glycoproteins (strain S27), E2 mutant I101A (chikungunya virus strain S27) (UniProt Q8JUX5)
[17] = molecular target: CHIKV E2-E1 envelope glycoproteins (strain S27), E2 mutant T42A (chikungunya virus strain S27) (UniProt Q8JUX5)
[18] = molecular target: CHIKV E2-E1 envelope glycoproteins (strain S27), E2 mutant E35A (chikungunya virus strain S27) (UniProt Q8JUX5)
[19] = molecular target: CHIKV E2-E1 envelope glycoproteins (strain S27), E2 mutant G108A (chikungunya virus strain S27) (UniProt Q8JUX5)
[20] = molecular target: CHIKV E2-E1 envelope glycoproteins (strain S27), E2 mutant S61A (chikungunya virus strain S27) (UniProt Q8JUX5)
[21] = molecular target: CHIKV E2-E1 envelope glycoproteins (strain S27), E2 mutant V50A (chikungunya virus strain S27) (UniProt Q8JUX5)
[22] = molecular target: CHIKV E2-E1 envelope glycoproteins (strain S27), E2 mutant N72A (chikungunya virus strain S27) (UniProt Q8JUX5)
[23] = molecular target: CHIKV E2-E1 envelope glycoproteins (strain S27), E2 mutant K120A (chikungunya virus strain S27) (UniProt Q8JUX5)
[24] = molecular target: CHIKV E2-E1 envelope glycoproteins (strain S27), E2 mutant D43A (chikungunya virus strain S27) (UniProt Q8JUX5)
[25] = molecular target: CHIKV E2-E1 envelope glycoproteins (strain S27), E2 mutant G95A (chikungunya virus strain S27) (UniProt Q8JUX5)
[26] = molecular target: CHIKV E2-E1 envelope glycoproteins (strain S27), E2 mutant L46A (chikungunya virus strain S27) (UniProt Q8JUX5)
[27] = molecular target: CHIKV E2-E1 envelope glycoproteins (strain S27), E2 mutant V32A (chikungunya virus strain S27) (UniProt Q8JUX5)
[28] = molecular target: CHIKV E2-E1 envelope glycoproteins (strain S27), E2 mutant D71A (chikungunya virus strain S27) (UniProt Q8JUX5)
[29] = molecular target: CHIKV E2-E1 envelope glycoproteins (strain S27), E2 mutant R80A (chikungunya virus strain S27) (UniProt Q8JUX5)
[30] = molecular target: CHIKV E2-E1 envelope glycoproteins (strain S27), E2 mutant H130A (chikungunya virus strain S27) (UniProt Q8JUX5)
[31] = molecular target: CHIKV E2-E1 envelope glycoproteins (strain S27), E2 mutant S51A (chikungunya virus strain S27) (UniProt Q8JUX5)
[32] = molecular target: CHIKV E2-E1 envelope glycoproteins (strain S27), E2 mutant T92A (chikungunya virus strain S27) (UniProt Q8JUX5)
[33] = molecular target: CHIKV E2-E1 envelope glycoproteins (strain S27), E2 mutant M70A (chikungunya virus strain S27) (UniProt Q8JUX5)

| Substance | Binding Reactivity (% WT) [1] | Binding Reactivity (% WT) [2] | Binding Reactivity (% WT) [3] | Binding Reactivity (% WT) [4] | Binding Reactivity (% WT) [5] | Binding Reactivity (% WT) [6] | Binding Reactivity (% WT) [7] | Binding Reactivity (% WT) [8] | Binding Reactivity (% WT) [9] | Binding Reactivity (% WT) [12] | Binding Reactivity (% WT) [13] | Binding Reactivity (% WT) [14] | Binding Reactivity (% WT) [15] | Binding Reactivity (% WT) [16] | Binding Reactivity (% WT) [17] | Binding Reactivity (% WT) [18] | Binding Reactivity (% WT) [19] | Binding Reactivity (% WT) [20] | Binding Reactivity (% WT) [21] | Binding Reactivity (% WT) [22] | also measured |
| --- | --- | --- | --- | --- | --- | --- | --- | --- | --- | --- | --- | --- | --- | --- | --- | --- | --- | --- | --- | --- | --- |
| CHIKV mAb C9 (antibody) | 84 % WT | 74 % WT | 98.7 % WT | 81.4 % WT | 60.9 % WT | 108 % WT | 18.7 % WT | 71.8 % WT | 34.4 % WT | 0.6 % WT | 109 % WT | 89.6 % WT | 99.2 % WT | 26.6 % WT | 102 % WT | 22.2 % WT | 71.9 % WT | 93.1 % WT | 76.7 % WT | 112 % WT | Binding Reactivity (% WT) [10]: 4.3 % WT; Binding Reactivity (% WT) [11]: 107 % WT; Binding Reactivity (% WT) [23]: 15.4 % WT; Binding Reactivity (% WT) [24]: 11.1 % WT; Binding Reactivity (% WT) [25]: 86.2 % WT; Binding Reactivity (% WT) [26]: 1.7 % WT; Binding Reactivity (% WT) [27]: 44 % WT; Binding Reactivity (% WT) [28]: 91.8 % WT; Binding Reactivity (% WT) [29]: 68.8 % WT; Binding Reactivity (% WT) [30]: 106 % WT; Binding Reactivity (% WT) [31]: 85.3 % WT; Binding Reactivity (% WT) [32]: 96 % WT; Binding Reactivity (% WT) [33]: 81 % WT |
| CHIKV mAb IM-CKV065 (antibody) | 85.5 % WT | 114 % WT | 91.1 % WT | 98.5 % WT | 54.1 % WT | 120 % WT | 6.2 % WT | 64.8 % WT | 16.3 % WT | -2 % WT | 108 % WT | -0.9 % WT | 113 % WT | 6.3 % WT | 104 % WT | 11.7 % WT | 34.8 % WT | 112 % WT | 48.2 % WT | 103 % WT | Binding Reactivity (% WT) [10]: -0.2 % WT; Binding Reactivity (% WT) [11]: 125 % WT; Binding Reactivity (% WT) [23]: 0.4 % WT; Binding Reactivity (% WT) [24]: 3.7 % WT; Binding Reactivity (% WT) [25]: 92.6 % WT; Binding Reactivity (% WT) [26]: -2.7 % WT; Binding Reactivity (% WT) [27]: 33.3 % WT; Binding Reactivity (% WT) [28]: 102 % WT; Binding Reactivity (% WT) [29]: 125 % WT; Binding Reactivity (% WT) [30]: 104 % WT; Binding Reactivity (% WT) [31]: 85.6 % WT; Binding Reactivity (% WT) [32]: 93.2 % WT; Binding Reactivity (% WT) [33]: 104 % WT |
| Mxra8-Fc (mouse Mxra8 extracellular domain fused to mouse IgG2b Fc) (Fc fusion) | 102 % WT | 102 % WT | 101 % WT | 94.6 % WT | 77.4 % WT | 91.9 % WT | 17.3 % WT | 85 % WT | 28.3 % WT | 1 % WT | 106 % WT | 102 % WT | 95.6 % WT | 23.7 % WT | 95.7 % WT | 11 % WT | 76.7 % WT | 116 % WT | 67.8 % WT | 128 % WT | Binding Reactivity (% WT) [23]: 1.8 % WT; Binding Reactivity (% WT) [24]: 36.2 % WT; Binding Reactivity (% WT) [25]: 94.6 % WT; Binding Reactivity (% WT) [26]: 4.8 % WT; Binding Reactivity (% WT) [27]: 47.1 % WT; Binding Reactivity (% WT) [28]: -0.3 % WT; Binding Reactivity (% WT) [29]: 131 % WT; Binding Reactivity (% WT) [30]: 101 % WT; Binding Reactivity (% WT) [31]: 99.2 % WT; Binding Reactivity (% WT) [32]: 98.6 % WT; Binding Reactivity (% WT) [33]: 110 % WT |
| CHIKV mAb IM-CKV063 (antibody) | 72.1 % WT | 64.8 % WT | 82.8 % WT | 86.9 % WT | 62.1 % WT | 120 % WT | 18.7 % WT | 65.8 % WT | 29.4 % WT | 1.5 % WT | 96.5 % WT | 84.2 % WT | 111 % WT | 19.8 % WT | 111 % WT | 19.1 % WT | 59 % WT | 100 % WT | 64.1 % WT | 114 % WT | Binding Reactivity (% WT) [10]: 3.6 % WT; Binding Reactivity (% WT) [11]: 107 % WT; Binding Reactivity (% WT) [23]: 13.1 % WT; Binding Reactivity (% WT) [24]: 8.3 % WT; Binding Reactivity (% WT) [25]: 88.9 % WT; Binding Reactivity (% WT) [26]: 2.7 % WT; Binding Reactivity (% WT) [27]: 44.1 % WT; Binding Reactivity (% WT) [28]: 98.9 % WT; Binding Reactivity (% WT) [29]: 86.3 % WT; Binding Reactivity (% WT) [30]: 91 % WT; Binding Reactivity (% WT) [31]: 89.8 % WT; Binding Reactivity (% WT) [32]: 84.5 % WT; Binding Reactivity (% WT) [33]: 81.7 % WT |
| CHIKV mAb CHKV-88 (antibody) | 100 % WT | 56.5 % WT | 84.3 % WT | 121 % WT | 84.6 % WT | 124 % WT | 38.8 % WT | 85 % WT | 58.3 % WT | 4 % WT | 134 % WT | 91.8 % WT | 103 % WT | 44.5 % WT | 112 % WT | 55.9 % WT | 71.1 % WT | 105 % WT | 78.6 % WT | 109 % WT | Binding Reactivity (% WT) [10]: 25.1 % WT; Binding Reactivity (% WT) [11]: 122 % WT; Binding Reactivity (% WT) [23]: 82.3 % WT; Binding Reactivity (% WT) [24]: 37.5 % WT; Binding Reactivity (% WT) [25]: 89 % WT; Binding Reactivity (% WT) [26]: 23.6 % WT; Binding Reactivity (% WT) [27]: 84.8 % WT; Binding Reactivity (% WT) [28]: 108 % WT; Binding Reactivity (% WT) [29]: 128 % WT; Binding Reactivity (% WT) [30]: 110 % WT; Binding Reactivity (% WT) [31]: 96.9 % WT; Binding Reactivity (% WT) [32]: 109 % WT; Binding Reactivity (% WT) [33]: 93.7 % WT |
